{"source": "patent US20030027314A1", "binders": {"B1": {"name": "AcidMax (Max with a polyglutamic acid extension on the dimerization domain) (designed binder)", "chain": "MASMTGGQQMGRDPDEEEDDEEELEELEDSFHSLRDSVPSLQGEKASRAQILDKATEYIQYMRRKNHTHQQDIDDLKRQNALLEQQVRALEKARSSAQLQT"}, "B2": {"name": "3heptad-C/EBP (three heptad acidic extension appended onto the C/EBP leucine zipper) (designed binder, not shown: a dimerising Fc or GST)", "chain": "ASMTGGQQMGRDPGGGLARENEELEKEAEELEQENAELEQKVLELTSDNDRLRKRVEQLSRELDTLRGIFRQLPESSLVKAMGNCA"}, "B3": {"name": "c-Jun (unmodified) (protein, from a related filing)", "chain": "PLSPIDMESQERIKAERKRMRNRIAASKCRKRKLERIARLEEKVKTLKAQNSELASTANMLREQVAQLKQKVMNHVNSGCQLMLTQQLQTF"}, "B4": {"name": "0heptadMax (dimerization domain of Max without an acidic extension) (protein)", "chain": "ASMTGGQQMGRDPDLEELEDSFHSLRDSVPSLQGEKASRAQILDKATEYIQYMRRKNHTHQQDIDDLKRQNALLEQQVRALEKARSSAQLQT"}, "B5": {"name": "New4hepCREB (CREB with the new 4heptad acidic extension, asparagine changed to leucine) (designed binder)", "chain": "MDYKDDDDKHMASMTGGQQMGRDPDLEQRAEELARENEELEKEAEELEQELAELENRVAVLENQNKTLIEELKALKDLYCHKSD"}}, "key": {"[1]": {"target": "c-Myc bHLH protein (murine) (UniProt P01108)", "assay": "heterodimer with c-Myc, study of FIG. 9 (method not given)"}, "[2]": {"target": "C/EBP bZIP domain (chimeric GCN4-C/EBP protein) (C/EBP part: 'present in rat liver'; GCN4 part: yeast)", "assay": "CD thermal melt, equimolar mixture, 150 mM KCl"}, "c-Jun (unmodified)": {"target": "c-Jun (unmodified)", "assay": "from thermal melts, Kd at 37 °C (FIG. 4)"}, "CREB (unmodified)": {"target": "T1, CREB (unmodified)", "T1 sequence (chain, from a related filing, looked up)": "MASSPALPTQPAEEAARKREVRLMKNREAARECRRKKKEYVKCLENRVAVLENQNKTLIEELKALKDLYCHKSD", "assay": "thermal melting curve, mixture (FIG. 3)"}}, "data": [{"binder": "B1", "values": [{"measurement": "Kd", "setting": "[1]", "value": 0.002, "unit": "nM"}]}, {"binder": "B2", "values": [{"measurement": "Kd", "setting": "[2]", "value": 0.6, "unit": "nM"}, {"measurement": "Tm", "setting": "[2]", "value": 61, "unit": "°C"}, {"measurement": "delta G at 25 °C", "setting": "[2]", "value": -12.6, "unit": "kcal/mol"}]}, {"binder": "B3", "values": [{"measurement": "Kd", "setting": "c-Jun (unmodified)", "value": 20000, "unit": "nM"}]}, {"binder": "B4", "values": [{"measurement": "Kd", "setting": "[1]", "value": 0.6, "unit": "nM"}]}, {"binder": "B5", "values": [{"measurement": "Tm", "setting": "CREB (unmodified)", "value": 69.5, "unit": "°C"}]}]}
